# B1: Antibody Mauldascha (antibody, V domains shown)
# VH: QVQLVQSGAEVKKPGSSVKVSCKASGYTFTSSYINWVRQAPGQGLEWMGTINAVSGSTSYAQKFQGRVTITADESTSTAYMELSSLRSEDTAVYYCARGGWFDYWGQGTLVTVSS
# VL: QSALTQPRSVSGSPGQSVTISCTGTSSDVGSYNYVNWYQQHPGKAPKLMIYGVSKRESGVPDRFSGSKSGNTASLTISGLQAEDEADYYCGTFAGGKYYGVFGGGTKLTVL
# B2: Antibody Zibebe (antibody, V domains shown)
# VH: QVQLVQSGAEVKKPGSSVKVSCKASGYKFTSSYINWVRQAPGQGLEWMGTINAVSGSTSYAQKFQGRVTITADESTSTAYMELSSLRSEDTAVYYCARGGWFDYWGQGTLVTVSS
# VL: QSALTQPRSVSGSPGQSVTISCTGTSSDVGSYNYVNWYQQHPGKAPKLMIYGVSKRESGVPDRFSGSKSGNTASLTISGLQAEDEADYYCGTFAGGKYYGVFGGGTKLTVL
# B3: Antibody Nonnafürzla (antibody, V domains shown)
# VH: QVQLVQSGAEVKKPGSSVKVSCKASGYTFTSSYINWVRQAPGQGLEWMGTINAVSGSTSYAQKFQGRVTITADTSTSTAYMELSSLRSEDTAVYYCARGGWFDYWGQGTLVTVSS
# VL: QSALTQPRSVSGSPGQSVTISCTGTSSDVGSYNYVNWYQQHPGKAPKLMIYGVSKRDSGVPDRFSGSKSGNTASLTISGLQAEDEADYYCGTFAGGKYYGVFGGGTKLTVL
# B4: Antibody Schnitzbrot (antibody, V domains shown)
# VH: QVQLVQSGAEVKKPGSSVKVSCKASGYKFTSSYINWVRQAPGQGLEWMGTINAVSGSTSYAQKFQGRVTITADTSTSTAYMELSSLRSEDTAVYYCARGGWFDYWGQGTLVTVSS
# VL: QSALTQPRSVSGSPGQSVTISCTGTSSDVGSYNYVNWYQQHPGKAPKLMIYGVSKRDSGVPDRFSGSKSGNTASLTISGLQAEDEADYYCGTFAGGKYYGVFGGGTKLTVL
# B5: Antibody Metzelsupp (antibody, V domains shown)
# VH: QVQLVQSGAEVKKPGSSVKVSCKASGYTFTSSYINWVRQAPGQGLEWMGTINAVSGSTSYAQKFQGRVTITADTSTSTAYMELSSLRSEDTAVYYCARGGWFDYWGQGTLVTVSS
# VL: QSALTQPRSVSGSPGQSVTISCTGTSSDVGSFNYVNWYQQHPGKAPKLMIRGVSKRESGVPDRFSGSKSGNTASLTISGLQAEDEADYYCGTFAGGAYYGVFGGGTKLTVL
# B6: Antibody Rauchfloisch (antibody, V domains shown)
# VH: QVQLVQSGAEVKKPGSSVKVSCKASGYTFTSSYINWVRQAPGQGLEWMGTINAVSGSTSYAQKFQGRVTITADTSTSTAYMELSSLRSEDTAVYYCARGGWFDYWGQGTLVTVSS
# VL: QSALTQPRSVSGSPGQSVTISCTGTSSDVGSRNYVNWYQQHPGKAPKLMIYGVSKRESGVPDRFSGSKSGNTASLTISGLQAEDEADYYCGTFAGGDYYGVFGGGTKLTVL
# B7: Antibody Oierspätzla (antibody, V domains shown)
# VH: QVQLVQSGAEVKKPGSSVKVSCKASGYTFTSSYINWVRQAPGQGLEWMGTINPVSGSTSYAQKFQGRVTITADTSTSTAYMELSSLRSEDTAVYYCARGGWFDYWGQGTLVTVSS
# VL: QSALTQPRSVSGSPGQSVTISCTGTSSDVGSYNYVNWYQQHPGKAPKLMIYGVSKRESGVPDRFSGSKSGNTASLTISGLQAEDEADYYCGTFAGGAYYGVFGGGTKLTVL
# Biological target: ActRIIA and ActRIIB (on TGFB/SMAD SBE Reporter HEK293 cells) (human)
# Test: cell-based or functional assay
Binder,"IC50, Activin SMAD RGA","IC50, Myostatin SMAD RGA","IC90, Activin SMAD RGA","IC90, Myostatin SMAD RGA"
B1,1.83 nM,1.42 nM,6.72 nM,13.4 nM
B2,0.542 nM,1.46 nM,7.83 nM,19 nM
B3,0.505 nM,1.32 nM,3.81 nM,27.3 nM
B4,0.312 nM,0.624 nM,2.52 nM,19.1 nM
B5,0.573 nM,0.713 nM,3.79 nM,7.72 nM
B6,0.668 nM,1.31 nM,5.11 nM,18.2 nM
B7,0.361 nM,0.96 nM,3.06 nM,16.8 nM
